T1: Cas12i-30 (N295R,N260R)
T1 chain: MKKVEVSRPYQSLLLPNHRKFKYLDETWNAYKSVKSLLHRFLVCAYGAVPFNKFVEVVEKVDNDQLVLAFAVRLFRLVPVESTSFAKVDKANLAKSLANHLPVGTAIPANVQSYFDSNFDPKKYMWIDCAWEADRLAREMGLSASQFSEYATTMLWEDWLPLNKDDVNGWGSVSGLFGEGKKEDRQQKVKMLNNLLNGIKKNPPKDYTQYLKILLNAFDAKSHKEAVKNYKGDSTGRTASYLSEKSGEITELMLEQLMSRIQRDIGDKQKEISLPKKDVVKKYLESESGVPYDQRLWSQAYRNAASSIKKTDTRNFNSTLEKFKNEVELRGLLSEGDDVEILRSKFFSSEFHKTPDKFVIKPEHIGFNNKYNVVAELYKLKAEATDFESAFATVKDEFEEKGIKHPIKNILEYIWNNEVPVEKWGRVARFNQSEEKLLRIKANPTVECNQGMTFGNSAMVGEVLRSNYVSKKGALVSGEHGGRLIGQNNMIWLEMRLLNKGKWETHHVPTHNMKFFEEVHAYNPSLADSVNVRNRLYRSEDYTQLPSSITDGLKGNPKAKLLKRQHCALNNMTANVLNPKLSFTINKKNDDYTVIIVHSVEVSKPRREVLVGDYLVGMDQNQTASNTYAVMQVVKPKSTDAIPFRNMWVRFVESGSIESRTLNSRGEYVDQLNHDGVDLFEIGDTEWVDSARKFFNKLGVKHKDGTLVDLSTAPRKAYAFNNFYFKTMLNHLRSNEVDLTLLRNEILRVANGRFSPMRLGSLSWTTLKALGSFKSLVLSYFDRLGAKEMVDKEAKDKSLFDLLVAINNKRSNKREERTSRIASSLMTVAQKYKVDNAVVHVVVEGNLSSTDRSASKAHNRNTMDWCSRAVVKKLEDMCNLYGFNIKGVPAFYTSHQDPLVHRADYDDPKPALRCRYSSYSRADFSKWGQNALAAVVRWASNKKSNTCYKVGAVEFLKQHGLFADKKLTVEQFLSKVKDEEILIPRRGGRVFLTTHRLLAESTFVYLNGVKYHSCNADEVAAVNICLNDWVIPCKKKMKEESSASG

B1: gRNA-TTR ; TTR target (ssRNA ; dsDNA)
RNA: AGAGAAUGUGUGCAUAGUCACACCAGUAAGAUUUGGUGUCUAU
DNA 1: CAGTAAGATTTGGTGTCTAT
DNA 2: ATAGACACCAAATCTTACTG
B2: gRNA-HBB ; HBB target (ssRNA ; dsDNA)
RNA: AGAGAAUGUGUGCAUAGUCACACUAUGCAGAAAUAUUGCUAUUGCCU
DNA 1: TATGCAGAAATATTGCTATTGCCT
DNA 2: AGGCAATAGCAATATTTCTGCATA

How the values were obtained:
Cas12i-30 [1] = target: T1, Cas12i-30; assay: cell_activity; 293T indels; editing >10%
Protocol: (§1) Plating: The 293T cell line was plated when the confluence reached 70-80%, and the number of cells seeded in a 24-well plate was 5*10\hat{ }5 cells/well.
(§2) Transfection: After 12-14 hours of plating, transfection was performed. 100 μl of Opti-MEM, 1.5 μl of PEI (Yisheng Bio, Polyethylenimine Linear (PEI) MW25000), 250 ng of the mutant clone plasmid from Example 2, and 250 ng of gRNA plasmid for targeting endogenous genes were added to each well of a 24-well plate. The mixture was incubated at room temperature for 20 minutes and then added to 293T cells for transfection. After transfection overnight, the medium was replaced with fresh medium and cultured for the next period.
(§3) DNA extraction, PCR amplification, and Sanger sequencing: After culturing for 72 hours, cells were washed with PBS, and then 100 μl of cell lysis buffer (Viagen, DirectPCR® Lysis Reagent (Cell)) was added for lysis to obtain a lysate containing genomic DNA. The genomic DNA was amplified in the region near the target sequence, and the PCR product was sent to a sequencing company for Sanger sequencing.

Cas12i-30 [2] = target: T1, Cas12i-30; assay: cell_activity; 293T indels, reference; editing >10%
Protocol: as §1, §2, §3

| Binder | relative indel editing efficiency (Cas12i-30 [1]) | relative indel editing efficiency (Cas12i-30 [2]) |
| --- | --- | --- |
| B1 | 1.89 fold of wild type |  |
| B2 |  | 1 fold of Cas12i-30 |
